Data published in patent publication US20250296995A1 (GlaxoSmithKline, published 2025).
Several values for one entry are separate records, joined by “and”; a condition that tells them apart may be missing. Identical values can stand only once.

What was measured:
[1] = molecular target: T1, recombinant SPOCK1 protein (human, UniProt Q08629 22-439); test: SPR with recombinant protein
T1 sequence (looked up): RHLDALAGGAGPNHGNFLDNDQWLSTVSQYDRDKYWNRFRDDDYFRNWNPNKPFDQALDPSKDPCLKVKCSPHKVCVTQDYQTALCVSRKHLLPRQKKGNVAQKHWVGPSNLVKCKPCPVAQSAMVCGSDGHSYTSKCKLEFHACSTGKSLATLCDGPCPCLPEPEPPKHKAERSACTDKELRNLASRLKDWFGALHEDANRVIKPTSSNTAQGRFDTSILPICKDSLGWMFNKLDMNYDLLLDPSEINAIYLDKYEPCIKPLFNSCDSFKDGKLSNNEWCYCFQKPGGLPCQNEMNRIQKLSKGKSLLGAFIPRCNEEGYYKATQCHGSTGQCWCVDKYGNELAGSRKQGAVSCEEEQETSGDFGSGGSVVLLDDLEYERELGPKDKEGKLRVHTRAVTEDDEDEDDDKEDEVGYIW

[2] = molecular target: T2, recombinant Plasmodium falciparum circumsporozoite protein (CSP) (Plasmodium falciparum, UniProt Q7K740 21-375); test: SPR, recombinant CSP
T2 construct: also called recombinant CSP
T2 sequence (Q7K740 21-375 limits assumed): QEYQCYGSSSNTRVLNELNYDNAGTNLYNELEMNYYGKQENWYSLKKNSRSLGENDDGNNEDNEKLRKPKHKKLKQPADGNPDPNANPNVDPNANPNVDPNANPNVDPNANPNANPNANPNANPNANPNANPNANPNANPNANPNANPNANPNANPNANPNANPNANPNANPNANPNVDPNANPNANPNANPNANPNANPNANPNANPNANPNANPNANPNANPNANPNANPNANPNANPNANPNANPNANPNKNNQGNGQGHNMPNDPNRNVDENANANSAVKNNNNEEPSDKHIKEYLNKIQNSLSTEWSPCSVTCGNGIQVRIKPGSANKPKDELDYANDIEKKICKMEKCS

[3] = molecular target: T2, recombinant Plasmodium falciparum …; test: binding affinity column of the in vivo table (SPR, CSP)
[4] = molecular target: recombinant Plasmodium falciparum circumsporozoite protein (CSP) (Plasmodium falciparum, UniProt P19597 21-375); test: cell-based or functional assay
recombinant Plasmodium falciparum circumsporozoite protein (CSP) (Plasmodium falciparum, UniProt P19597 21-375), sequence (P19597 21-375 limits assumed): as the sequence (Q7K740 21-375 limits assumed) above

[5] = molecular target: T3, recombinant CNTNAP2 protein (human, UniProt Q9UHC6 28-1262); test: SPR with recombinant protein
T3 sequence (looked up): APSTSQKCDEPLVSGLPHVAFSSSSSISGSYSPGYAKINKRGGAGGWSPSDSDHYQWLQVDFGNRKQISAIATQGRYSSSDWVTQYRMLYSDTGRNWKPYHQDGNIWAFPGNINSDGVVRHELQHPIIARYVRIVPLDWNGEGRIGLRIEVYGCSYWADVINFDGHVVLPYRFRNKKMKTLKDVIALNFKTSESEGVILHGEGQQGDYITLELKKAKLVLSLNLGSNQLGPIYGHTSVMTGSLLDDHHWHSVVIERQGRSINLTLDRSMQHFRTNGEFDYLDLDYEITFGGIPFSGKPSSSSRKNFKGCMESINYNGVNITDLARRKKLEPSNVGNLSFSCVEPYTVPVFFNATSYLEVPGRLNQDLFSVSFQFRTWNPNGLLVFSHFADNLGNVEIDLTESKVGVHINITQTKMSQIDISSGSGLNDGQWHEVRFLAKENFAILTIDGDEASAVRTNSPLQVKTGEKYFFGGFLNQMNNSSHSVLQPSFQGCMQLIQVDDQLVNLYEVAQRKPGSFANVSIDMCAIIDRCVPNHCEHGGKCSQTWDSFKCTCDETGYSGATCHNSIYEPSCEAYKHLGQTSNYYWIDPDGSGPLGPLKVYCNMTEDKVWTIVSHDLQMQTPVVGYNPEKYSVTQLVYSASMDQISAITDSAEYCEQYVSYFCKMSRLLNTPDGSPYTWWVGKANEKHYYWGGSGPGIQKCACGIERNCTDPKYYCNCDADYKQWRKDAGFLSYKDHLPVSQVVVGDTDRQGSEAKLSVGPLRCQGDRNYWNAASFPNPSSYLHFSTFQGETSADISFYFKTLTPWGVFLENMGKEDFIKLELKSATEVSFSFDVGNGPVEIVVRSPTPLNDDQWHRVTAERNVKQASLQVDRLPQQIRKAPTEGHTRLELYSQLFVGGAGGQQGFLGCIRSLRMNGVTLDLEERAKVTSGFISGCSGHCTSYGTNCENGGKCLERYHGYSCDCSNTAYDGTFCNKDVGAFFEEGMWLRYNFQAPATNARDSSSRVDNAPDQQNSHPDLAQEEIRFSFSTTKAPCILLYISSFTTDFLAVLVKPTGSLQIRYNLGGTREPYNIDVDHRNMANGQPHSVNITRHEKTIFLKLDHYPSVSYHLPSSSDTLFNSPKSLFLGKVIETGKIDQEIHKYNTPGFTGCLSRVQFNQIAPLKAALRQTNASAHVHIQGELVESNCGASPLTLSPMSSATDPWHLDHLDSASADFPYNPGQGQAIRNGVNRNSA

| Binder | binding result [1] | Kd [2] | koff [2] | kon [2] | Kd [3] | EC50 in ADCP assay [4] | binding result [5] |
| --- | --- | --- | --- | --- | --- | --- | --- |
| 338-LS (antibody, V domains shown) VH: QVQLVESGGGVVQPGRSLRLSCAASGFSFSTYGMHWIRQVPGKGLEWVAIIWHDGSKEFYADSVKGRFTISRDNSKKKLYLQMNSLRAEDTAIYYCVKDDFDSSGHSYFHYWGQGTLVTVSS VL: GVVMTQSPLSLPVTLGQPASISCRSSQSLVHSDGNTYVHWFQQRPGQSPRRLIYKVSNRDSGVPDRFSGSGSGTDFTLKISRVEAEDVGVYYCMQGTQWWTFGQGTKVEIK | no binding (tested: 300 nM) |  |  |  |  |  |  |
| 338-ALE-LS (antibody, human IgG1, kappa, V domains shown) VH: QVQLVESGGGVVQPGRSLRLSCAASGFSFSTYGMHWIRQVPGKGLEWVAIIWHDGSKEFYADSVKGRFTISRDNSKKKLYLQMNSLRAEDTAIYYCVKDDFDSSGHSYFHYWGQGTLVTVSS VL: GVVMTQSPLSLPVTLGQPASISCRSSQSLVHSDGNTYVHWFQQRPGQSPRRLIYKVSNRDSGVPDRFSGSGSGTDFTLKISRVEAEDVGVYYCMQGTQWWTFGQGTKVEIKR | no binding (tested: 300 nM) |  |  |  |  |  |  |
| AB001387 (antibody, V domains shown) VH: QVQLVESGGGVVQPGRSLRLSCAASGFTFSNYGMHWVRQAPGKGLEWVAVIWYDGSNKFYADSVKGRFTSSRDNSKNTLYLQMNSLRAEDTAVYYCARDGRFLTTVTTAYFDYWGQGTLVTVSS VL: QSVLTQPPSVSGAPGQRVTISCTGSSSNIGAGYDVHWYQQLPGTAPKLLIYGNSNRPSGVPDRFSGSKSGTSASLAITGLQAEDEADYYCQSYDSSLSALVFGGGTKLTVL |  | 0.676 nM | 0.00111 s⁻¹ | 1.65e+06 M⁻¹ s⁻¹ | 0.676 nM |  |  |
| AB-000356 LS (antibody, V domains shown) VH: QVQLVESGGGVVQPGRSLRLSCAASGFTFRNFGMHWVRQTPGKGLEWVAVIWHDGSNKFYADSVEGRFTISRDNSKNMIYLQMNSLRVEDTAIYYCARDSLFYDHDNSGYYGYWGQGTLVTVSS VL: QIVMTQSPATVSVSPGERATLSCRASRSVTSKLAWYQQKPGQAPRLLIYGASTRATGIPARFSGSGSGTEFTLTISSLQSEDFAVYFCQQYNNGFTFGPGTKVDFK |  | 2.46 nM | 0.00107 s⁻¹ | 436000 M⁻¹ s⁻¹ | 2.46 nM |  |  |
| 356-ALE-LS (antibody, human IgG1, kappa) heavy: QVQLVESGGGVVQPGRSLRLSCAASGFTFRNFGMHWVRQTPGKGLEWVAVIWHDGSNKFYADSVEGRFTISRDNSKNMIYLQMNSLRVEDTAIYYCARDSLFYDHDNSGYYGYWGQGTLVTVSSASTKGPSVFPLAPSSKSTSGGTAALGCLVKDYFPEPVTVSWNSGALTSGVHTFPAVLQSSGLYSLSSVVTVPSSSLGTQTYICNVNHKPSNTKVDKKVEPKSCDKTHTCPPCPAPELLAGPSVFLFPPKPKDTLMISRTPEVTCVVVDVSHEDPEVKFNWYVDGVEVHNAKTKPREEQYNSTYRVVSVLTVLHQDWLNGKEYKCKVSNKALPLPEEKTISKAKGQPREPQVYTLPPSRDELTKNQVSLTCLVKGFYPSDIAVEWESNGQPENNYKTTPPVLDSDGSFFLYSKLTVDKSRWQQGNVFSCSVLHEALHSHYTQKSLSLSPGK light: not shown |  |  |  |  |  | < 0.001 nM | no binding (tested: 300 nM) |
| 356-DEA-FV-LS (antibody, human IgG1, kappa) heavy: QVQLVESGGGVVQPGRSLRLSCAASGFTFRNFGMHWVRQTPGKGLEWVAVIWHDGSNKFYADSVEGRFTISRDNSKNMIYLQMNSLRVEDTAIYYCARDSLFYDHDNSGYYGYWGQGTLVTVSSASTKGPSVFPLAPSSKSTSGGTAALGCLVKDYFPEPVTVSWNSGALTSGVHTFPAVLQSSGLYSLSSVVTVPSSSLGTQTYICNVNHKPSNTKVDKKVEPKSCDKTHTCPPCPAPELLAGPDVFLFPPKPKDVLMISRTPEVTCVVVDVSHEDPEVKFNWYVDGVEVHNFKTKPREEQYNSTYRVVSVLTVLHQDWLNGKEYKCKVSNKALPAPEEKTISKAKGQPREPQVYTLPPSRDELTKNQVSLTCLVKGFYPSDIAVEWESNGQPENNYKTTPPVLDSDGSFFLYSKLTVDKSRWQQGNVFSCSVLHEALHSHYTQKSLSLSPGK light: not shown |  |  |  |  |  | < 0.001 nM | no binding (tested: 300 nM) |
| AB-000222 (antibody, V domains shown) VH: QVQLVESGGGVVQPGRSLRLSCAASGFTFSNFGMHWVRQAPGKGLEWVAVIWYDGSKKYYADFVKGRFTISRDNSKYMLYLQMTSLGAEDTAIYYCARDIRGAYRVTDGGFDYWGQGALVTVSS VL: QFVLTQPPSVSGAPGQRVTISCTGSSFNIGAGYDVHWYQQLPEKAPKLLIYGSTNRASEVPDRFSGSKSGTSASLAITGLQPEDEADYYCQSYDSSLSGYVFGTGTKVTVL |  | 0.153 nM and 0.152 nM | 0.00118 s⁻¹ | 7.76e+06 M⁻¹ s⁻¹ | 0.152 nM |  |  |
| AB001480 (antibody, V domains shown) VH: QVQLVESGGGVVQPGRSLRLSCAASGFTFSFYGMHWVRQAPGKGLEWVAVIWYDGSNKYYADSVRGRFTISRDNSKNTLYLQMNSLRAEDTAVYYCARVGNDYDDHGSALDMWGQGTMVTVSS VL: DIQMTQSPSTLSASVGDRVTITCRASQSISSWLAWYQQKPGKAPKLLIYRASSLESGVPPRFSGSGSGTEFTLTISSLQPDDFGIYYCQQYNSRWTFGQGTKVEIK |  | 1.17 nM and 1.18 nM | 0.000659 s⁻¹ | 561000 M⁻¹ s⁻¹ | 1.18 nM |  |  |
